# Source: the supplement of paper PMC10126150
# ± gives the standard deviation of the averaged measurements.
# System: ATP
# Test: switch fluorescence ratio, 500 uM ATP over buffer (Cy3 cluster intensity, sum of 5 cycles each) (fold (ratio)); higher = stronger signal-on switching upon ATP binding; sequences stand for … in TCGTCGGCAGCGTCAGATGTGTATAAGAGACAGTTTTTTTTTTTTTTTTTTTTTTTTT…TC
# Settings: aptamer strand: ATP DNA aptamer (quencher-CACCTGGGGGAGTATTGCGGAGGAAGG + anchor), 100 nM annealed; ATP concentration: 500 uM
# How it was run: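 Switching-strand clusters labelled with Cy3 on a modified Illumina MiSeq flow-cell were annealed to 100 nM quencher-labelled ATP aptamer, imaged in selection buffer, and re-imaged after 15 min with 500 uM ATP at 22 °C. This was done over five cycles with NaOH stripping and re-annealing in between. The fluorescence ratio is summed target-cycle over summed buffer-cycle Cy3 intensity per cluster, averaged per switch-domain sequence, excluding clusters outside 100-1000 RFU.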
# 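Further: ATP exposure 15 min at 22 °C before imaging.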
row,Sequence,switch fluorescence ratio
1,GAGTGACGGA,1 ± 0.054
2,GAGTGCGGCT,1.07 ± 0.16
3,GAGTGCGGGC,1.07 ± 0.068
4,GAGTGGAGAC,0.977 ± 0.053
5,GAGTGGAGGC,1.03 ± 0.05
6,GAGTGGATAG,0.996 ± 0.018
7,GAGTGGGGAG,0.968 ± 0.045
8,GAGTGGGGGC,1.01 ± 0.054
9,GAGTGGGGGT,0.977 ± 0.032
10,GAGTGTCAGC,1 ± 0.035
11,GAGTGTGTTC,1.01 ± 0.024
12,GAGTTAAACA,0.994 ± 0.021
13,GAGTTAACGG,1 ± 0.0026
14,GAGTTACGGC,1.22 ± 0.26
15,GAGTTACTTT,1.02 ± 0.023
16,GAGTTATGGG,0.9963 ± 0.0048
17,GAGTTGACGG,1.03 ± 0.013
18,GAGTTGGAAG,1.009 ± 0.0071
19,GAGTTGGGTC,1.02 ± 0.021
20,GAGTTGTCAA,0.972 ± 0.033
21,GAGTTGTGAT,1 ± 0.019
22,GAGTTGTGCG,0.9969 ± 0.001
23,GAGTTTATGG,0.984 ± 0.029
24,GAGTTTGACC,0.965 ± 0.03
25,GAGTTTGCGT,1.03 ± 0.015

row,Sequence,switch fluorescence ratio
1,GAGTTTGGAC,0.985 ± 0.058
2,GAGTTTGTCC,0.998 ± 0.012
3,GAGTTTTTGT,1.01 ± 0.017
4,GATAAATTTT,0.974 ± 0.023
5,GATAACATGT,1.02 ± 0.029
6,GATAAGAGCG,0.975 ± 0.029
7,GATAAGTATG,0.975 ± 0.015
8,GATAATAATG,1.02 ± 0.0061
9,GATAATGGGT,0.976 ± 0.042
10,GATAATGGTT,0.964 ± 0.011
11,GATAATTGGG,0.9992 ± 0.0079
12,GATACATGCT,0.979 ± 0.036
13,GATACCATGG,0.985 ± 0.03
14,GATACCTATG,1.03 ± 0.027
15,GATACGCCAC,2.11 ± 0.06
16,GATACGTAGG,1.009 ± 0.0049
17,GATACTATTT,0.98 ± 0.03
18,GATACTCTTA,1.021 ± 0.0081
19,GATACTGATC,1.13 ± 0.042
20,GATACTGGGT,0.995 ± 0.046
21,GATAGAAAGC,0.9852 ± 0.0027
22,GATAGACGCA,1.1 ± 0.089
23,GATAGACTTA,0.949 ± 0.03
24,GATAGAGGGT,1.01 ± 0.033
25,GATAGAGGTG,1.32 ± 0.62

row,Sequence,switch fluorescence ratio
1,GATAGATCAG,0.993 ± 0.018
2,GATAGGAAAC,1.12 ± 0.12
3,GATAGGGAGG,0.993 ± 0.016
4,GATAGGGGCG,0.998 ± 0.026
5,GATAGGGTGC,1.14 ± 0.044
6,GATAGGTGAG,1.01 ± 0.024
7,GATAGGTGGT,0.9691 ± 0.0046
8,GATAGTTCGT,1.01 ± 0.021
9,GATAGTTTAC,1.01 ± 0.044
10,GATAGTTTTG,0.9856 ± 0.0089
11,GATAGTTTTT,0.985 ± 0.03
12,GATATAAAGA,0.994 ± 0.046
13,GATATAACAT,1.028 ± 0.0025
14,GATATAAGGG,0.979 ± 0.042
15,GATATAATGG,0.9999 ± 0.0019
16,GATATCCGTA,0.962 ± 0.015
17,GATATGGGTA,1.02 ± 0.035
18,GATATTAGTG,0.9827 ± 0.0044
19,GATATTTAGT,0.995 ± 0.011
20,GATATTTCCC,0.9981 ± 0.0064
21,GATATTTTAG,1.009 ± 0.0087
22,GATATTTTGT,0.997 ± 0.031
23,GATCAACTGT,1 ± 0.032
24,GATCAAGGCA,1.017 ± 0.0012
25,GATCACAGGG,1.13 ± 0.01

row,Sequence,switch fluorescence ratio
1,GATCATAGTT,0.995 ± 0.013
2,GATCATCAGG,1 ± 0.012
3,GATCATGGGA,1.03 ± 0.093
4,GATCGAACGT,1.017 ± 0.0085
5,GATCGCCCCG,1 ± 0.02
6,GATCGGAGCG,1.04 ± 0.047
7,GATCGGAGGG,1.01 ± 0.027
8,GATCGGGCCG,0.975 ± 0.052
9,GATCGGGGTA,1.014 ± 0.0071
10,GATCGTGAGT,1 ± 0.015
11,GATCTAAAAC,0.9594 ± 0.0053
12,GATCTAGTTA,0.996 ± 0.054
13,GATCTATTGT,0.9619 ± 0.0088
14,GATCTCAGTT,1.02 ± 0.036
15,GATCTCGTGG,1.01 ± 0.056
16,GATCTGAAGT,1.02 ± 0.012
17,GATCTGGGTT,0.994 ± 0.031
18,GATCTTAACG,0.9912 ± 0.0096
19,GATCTTTCTG,0.994 ± 0.041
20,GATGAAGCCT,1.17 ± 0.035
21,GATGAAGGTT,0.992 ± 0.027
22,GATGAATTAG,1.005 ± 0.0082
23,GATGACACGA,1.033 ± 0.01
24,GATGACAGAG,0.974 ± 0.047
25,GATGACCTCA,0.998 ± 0.093

row,Sequence,switch fluorescence ratio
1,GATGAGGTGT,1.01 ± 0.036
2,GATGATGTGT,1.02 ± 0.031
3,GATGATGTTC,0.9439 ± 0.0072
4,GATGCAAGGG,1.83 ± 0.14
5,GATGCAGTAT,1.12 ± 0.044
6,GATGCGGCTA,1.02 ± 0.018
7,GATGCTAGAC,3 ± 0.11
8,GATGCTGTGG,0.958 ± 0.003
9,GATGCTTCTG,1.02 ± 0.032
10,GATGGAACTA,1.01 ± 0.034
11,GATGGAACTT,1.02 ± 0.053
12,GATGGAGTTC,0.983 ± 0.029
13,GATGGAGTTT,1.03 ± 0.011
14,GATGGATTTG,1.02 ± 0.033
15,GATGGCAGCG,1.05 ± 0.045
16,GATGGCATAA,1.01 ± 0.025
17,GATGGCATCG,1.02 ± 0.014
18,GATGGCCATT,1.02 ± 0.018
19,GATGGCCGTG,0.978 ± 0.018
20,GATGGCGGGA,1.02 ± 0.025
21,GATGGGAAAA,1.01 ± 0.021
22,GATGGGCTAG,0.997 ± 0.025
23,GATGGGGGTA,0.973 ± 0.033
24,GATGGGTTTG,0.991 ± 0.028
25,GATGGTAATT,1 ± 0.025

row,Sequence,switch fluorescence ratio
1,GATGGTGTGC,1.15 ± 0.29
2,GATGGTTAGT,0.974 ± 0.036
3,GATGTAAACC,1.01 ± 0.02
4,GATGTAATCT,1.02 ± 0.025
5,GATGTAATTT,1.03 ± 0.023
6,GATGTACCTC,1.05 ± 0.0046
7,GATGTAGCTA,1.033 ± 0.00083
8,GATGTAGGTG,1.007 ± 0.0071
9,GATGTAGTAG,1.01 ± 0.042
10,GATGTCGAGA,1.019 ± 0.0051
11,GATGTCGCGC,1.01 ± 0.028
12,GATGTCTGCT,1.019 ± 0.0098
13,GATGTGATTT,1.08 ± 0.078
14,GATGTGCTTG,1.01 ± 0.013
15,GATGTGGGGT,0.987 ± 0.012
16,GATGTGGTGT,0.984 ± 0.081
17,GATGTGTGGG,0.9843 ± 0.0015
18,GATGTGTTCT,0.988 ± 0.042
19,GATGTTAGGA,0.978 ± 0.034
20,GATGTTATAA,1 ± 0.029
21,GATGTTCCGT,0.9958 ± 0.0049
22,GATGTTGCTT,1.02 ± 0.055
23,GATTAAAGGT,1.01 ± 0.025
24,GATTAACGCT,1.03 ± 0.026
25,GATTAACGTT,0.971 ± 0.036

row,Sequence,switch fluorescence ratio
1,GATTAAGGAG,0.995 ± 0.011
2,GATTAATGTT,1 ± 0.022
3,GATTACAGCG,1.01 ± 0.02
4,GATTACGGGG,1.006 ± 0.0014
5,GATTAGATGT,0.9917 ± 0.0067
6,GATTAGGGGT,0.99655 ± 0.00059
7,GATTATATCT,0.981 ± 0.033
8,GATTATCAGA,0.988 ± 0.027
9,GATTATCTCG,0.99 ± 0.049
10,GATTATGAGT,1.02 ± 0.018
11,GATTATGGTT,0.9891 ± 0.003
12,GATTATTGGT,0.987 ± 0.031
13,GATTATTTGT,1.03 ± 0.022
14,GATTCAAACG,1.006 ± 0.0073
15,GATTCACGA,0.984 ± 0.015
16,GATTCAGGGG,1.04 ± 0.026
17,GATTCAGTAC,1.61 ± 0.056
18,GATTCCGTGT,1.01 ± 0.031
19,GATTCGGCGT,0.9867 ± 0.0067
20,GATTCGGCTA,1.02 ± 0.021
21,GATTCTCAAG,0.9746 ± 0.0056
22,GATTCTTTAC,1.03 ± 0.029
23,GATTGAGACT,1.01 ± 0.026
24,GATTGAGCTG,1.02 ± 0.043
25,GATTGATAGG,0.99961 ± 0.00019

row,Sequence,switch fluorescence ratio
1,GATTGCAAGG,1.02 ± 0.02
2,GATTGCACTT,1.02 ± 0.031
3,GATTGCAGGA,0.9989 ± 0.0039
4,GATTGCATGC,1.032 ± 0.0014
5,GATTGGCTGT,0.966 ± 0.029
6,GATTGGGGCA,1.02 ± 0.046
7,GATTGGGGCG,1.02 ± 0.015
8,GATTGGTAGG,0.981 ± 0.017
9,GATTGTAAGA,1.16 ± 0.2
10,GATTGTAGGC,1.03 ± 0.011
11,GATTGTCCGT,0.981 ± 0.031
12,GATTTAAAAT,1.013 ± 0.0083
13,GATTTAAAGG,1.04 ± 0.025
14,GATTTAGAAT,1.01 ± 0.012
15,GATTTAGCTG,1 ± 0.035
16,GATTTAGTAA,0.9759 ± 0.0069
17,GATTTATACT,1.06 ± 0.014
18,GATTTATTCG,0.983 ± 0.014
19,GATTTATTTG,0.989 ± 0.048
20,GATTTCGATG,1.01 ± 0.013
21,GATTTCGGGA,1.01 ± 0.04
22,GATTTCGTAT,0.98 ± 0.014
23,GATTTCTTAT,0.999 ± 0.052
24,GATTTGGGTT,1.02 ± 0.041
25,GATTTGTTGG,0.9815 ± 0.0055
